In US20180155451A1 (published 2018):

B1: GpH7-B3 variant S324_06M/GpL16-k0 (antibody, human IgG1, kappa)
heavy: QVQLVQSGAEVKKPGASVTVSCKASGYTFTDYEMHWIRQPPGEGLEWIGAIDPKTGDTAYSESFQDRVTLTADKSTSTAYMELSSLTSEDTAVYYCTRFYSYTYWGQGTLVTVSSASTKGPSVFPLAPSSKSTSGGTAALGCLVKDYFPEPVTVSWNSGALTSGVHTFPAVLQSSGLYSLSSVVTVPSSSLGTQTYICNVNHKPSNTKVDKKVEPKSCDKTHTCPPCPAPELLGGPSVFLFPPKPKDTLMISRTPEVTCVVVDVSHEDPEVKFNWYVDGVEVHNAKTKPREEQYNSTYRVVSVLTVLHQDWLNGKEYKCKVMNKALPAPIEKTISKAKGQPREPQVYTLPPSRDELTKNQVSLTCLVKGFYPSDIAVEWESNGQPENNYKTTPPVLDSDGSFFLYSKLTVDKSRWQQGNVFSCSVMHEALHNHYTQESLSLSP
light: DIVMTQSPLSLPVTPGEPASISCQASESLVHSNRNTYLHWYLQKPGQSPQLLIYKVSNRFSGVPDRFSGSGSGTDFTLKISRVEAEDVGVYYCSQNTHVPPTFGQGTKVEIERTVAAPSVFIFPPSDEQLKSGTASVVCLLNNFYPREAKVQWKVDNALQSGNSQESVTEQDSKDSTYSLSSTLTLSKADYEKHKVYACEVTHQGLSSPVTKSFNRGEC
notes: homodimerized; mutation in both H chains; also called Ho Ab
B2: GpH7-A5/GpH7-B3 variant S337_02A/GpL16-k0 (antibody, human IgG1, kappa)
heavy 1: not shown
heavy 2: not shown
light: B1 light
notes: heterodimerized; mutation in one H chain; also called He Ab
B3: GpH7-B3 variant S337_09D/GpL16-k0 (antibody, human IgG1, kappa)
heavy: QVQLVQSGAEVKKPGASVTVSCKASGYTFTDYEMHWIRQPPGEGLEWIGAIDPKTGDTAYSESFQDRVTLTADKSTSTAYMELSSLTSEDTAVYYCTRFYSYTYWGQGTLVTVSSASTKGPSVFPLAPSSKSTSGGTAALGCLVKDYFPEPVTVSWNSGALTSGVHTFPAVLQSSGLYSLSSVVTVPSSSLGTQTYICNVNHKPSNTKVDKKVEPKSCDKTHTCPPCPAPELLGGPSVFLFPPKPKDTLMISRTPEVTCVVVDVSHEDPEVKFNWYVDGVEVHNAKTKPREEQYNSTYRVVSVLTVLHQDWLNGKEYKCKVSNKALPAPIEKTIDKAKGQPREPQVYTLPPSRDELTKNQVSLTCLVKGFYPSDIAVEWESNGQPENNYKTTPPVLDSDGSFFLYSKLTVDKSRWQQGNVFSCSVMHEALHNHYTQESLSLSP
light: B1 light
notes: as for B1
B4: GpH7-A5/GpH7-B3 variant A330_12R/GpL16-k0 (antibody, human IgG1, kappa)
heavy 1: not shown
heavy 2: not shown
light: B1 light
notes: as for B2
B5: GpH7-A5/GpH7-B3 variant K334_10E/GpL16-k0 (antibody, human IgG1, kappa)
heavy 1: not shown
heavy 2: not shown
light: B1 light
notes: as for B2
B6: GpH7-A5/GpH7-B3 variant I336_08L/GpL16-k0 (antibody, human IgG1, kappa)
heavy 1: not shown
heavy 2: not shown
light: B1 light
notes: as for B2
B7: GpH7-A5/GpH7-B3 variant K326_15Y/GpL16-k0 (antibody, human IgG1, kappa)
heavy 1: not shown
heavy 2: not shown
light: B1 light
notes: as for B2
B8: GpH7-A5/GpH7-B3 variant K334_13S/GpL16-k0 (antibody, human IgG1, kappa)
heavy 1: not shown
heavy 2: not shown
light: B1 light
notes: as for B2
B9: GpH7-A5/GpH7-B3 variant I332_06M/GpL16-k0 (antibody, human IgG1, kappa)
heavy 1: not shown
heavy 2: not shown
light: B1 light
notes: as for B2
B10: GpH7-B3 variant S337_15Y/GpL16-k0 (antibody, human IgG1, kappa)
heavy: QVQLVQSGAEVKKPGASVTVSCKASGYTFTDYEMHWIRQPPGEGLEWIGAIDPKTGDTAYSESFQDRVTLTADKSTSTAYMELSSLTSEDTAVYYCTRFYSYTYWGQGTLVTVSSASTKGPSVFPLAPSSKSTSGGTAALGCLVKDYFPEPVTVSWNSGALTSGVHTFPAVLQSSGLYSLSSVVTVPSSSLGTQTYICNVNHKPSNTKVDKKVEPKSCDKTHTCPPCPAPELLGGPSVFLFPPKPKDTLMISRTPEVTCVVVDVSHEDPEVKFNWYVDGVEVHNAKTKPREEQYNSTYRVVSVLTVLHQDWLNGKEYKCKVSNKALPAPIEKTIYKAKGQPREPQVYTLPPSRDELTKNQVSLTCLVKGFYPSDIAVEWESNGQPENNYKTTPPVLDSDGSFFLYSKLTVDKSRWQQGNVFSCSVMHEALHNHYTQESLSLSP
light: B1 light
notes: as for B1
B11: GpH7-B3 variant S337_03V/GpL16-k0 (antibody, human IgG1, kappa)
heavy: not shown
light: B1 light
notes: as for B1
B12: GpH7-A5/GpH7-B3 variant K334_08L/GpL16-k0 (antibody, human IgG1, kappa)
heavy 1: not shown
heavy 2: not shown
light: B1 light
notes: as for B2
B13: GpH7-B3 variant T335_05P/GpL16-k0 (antibody, human IgG1, kappa)
heavy: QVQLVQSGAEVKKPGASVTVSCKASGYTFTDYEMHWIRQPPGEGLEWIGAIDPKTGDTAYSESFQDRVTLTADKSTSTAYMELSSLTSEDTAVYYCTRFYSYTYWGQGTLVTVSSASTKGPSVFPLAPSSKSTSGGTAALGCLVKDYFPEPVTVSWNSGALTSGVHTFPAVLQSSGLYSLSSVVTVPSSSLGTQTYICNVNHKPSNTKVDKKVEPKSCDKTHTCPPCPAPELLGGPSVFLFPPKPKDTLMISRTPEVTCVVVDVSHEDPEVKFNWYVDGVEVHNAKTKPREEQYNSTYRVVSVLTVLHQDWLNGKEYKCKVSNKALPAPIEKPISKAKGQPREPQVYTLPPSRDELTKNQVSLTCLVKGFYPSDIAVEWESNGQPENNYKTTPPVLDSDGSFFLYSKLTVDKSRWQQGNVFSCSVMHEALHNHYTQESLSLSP
light: B1 light
notes: as for B1
B14: GpH7-B3 variant S337_07I/GpL16-k0 (antibody, human IgG1, kappa)
heavy: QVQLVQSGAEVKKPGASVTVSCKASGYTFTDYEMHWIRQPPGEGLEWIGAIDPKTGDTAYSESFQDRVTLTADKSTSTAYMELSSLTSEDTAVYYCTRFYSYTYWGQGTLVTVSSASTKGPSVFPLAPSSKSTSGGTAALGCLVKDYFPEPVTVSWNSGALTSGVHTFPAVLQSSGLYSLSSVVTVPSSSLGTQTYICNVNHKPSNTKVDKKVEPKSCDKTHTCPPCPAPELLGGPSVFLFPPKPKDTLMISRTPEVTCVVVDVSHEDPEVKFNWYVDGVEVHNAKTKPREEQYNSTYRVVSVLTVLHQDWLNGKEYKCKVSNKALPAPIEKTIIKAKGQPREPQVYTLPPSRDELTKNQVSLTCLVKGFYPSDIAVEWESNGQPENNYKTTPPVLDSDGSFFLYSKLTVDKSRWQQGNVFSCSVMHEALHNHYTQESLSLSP
light: B1 light
notes: as for B1
B15: GpH7-A5/GpH7-B3 variant K326_07I/GpL16-k0 (antibody, human IgG1, kappa)
heavy 1: not shown
heavy 2: not shown
light: B1 light
notes: as for B2
B16: GpH7-A5/GpH7-B3 variant A327_09D/GpL16-k0 (antibody, human IgG1, kappa)
heavy 1: not shown
heavy 2: not shown
light: B1 light
notes: as for B2
B17: GpH7-A5/GpH7-B3 variant K326_03V/GpL16-k0 (antibody, human IgG1, kappa)
heavy 1: not shown
heavy 2: not shown
light: B1 light
notes: as for B2
B18: GpH7-A5/GpH7-B3 variant A327_10E/GpL16-k0 (antibody, human IgG1, kappa)
heavy 1: not shown
heavy 2: not shown
light: B1 light
notes: as for B2
B19: GpH7-A5/GpH7-B3 variant P238_03V/GpL16-k0 (antibody, human IgG1, kappa)
heavy 1: not shown
heavy 2: not shown
light: B1 light
notes: as for B2
B20: GpH7-B3 variant S337_19Q/GpL16-k0 (antibody, human IgG1, kappa)
heavy: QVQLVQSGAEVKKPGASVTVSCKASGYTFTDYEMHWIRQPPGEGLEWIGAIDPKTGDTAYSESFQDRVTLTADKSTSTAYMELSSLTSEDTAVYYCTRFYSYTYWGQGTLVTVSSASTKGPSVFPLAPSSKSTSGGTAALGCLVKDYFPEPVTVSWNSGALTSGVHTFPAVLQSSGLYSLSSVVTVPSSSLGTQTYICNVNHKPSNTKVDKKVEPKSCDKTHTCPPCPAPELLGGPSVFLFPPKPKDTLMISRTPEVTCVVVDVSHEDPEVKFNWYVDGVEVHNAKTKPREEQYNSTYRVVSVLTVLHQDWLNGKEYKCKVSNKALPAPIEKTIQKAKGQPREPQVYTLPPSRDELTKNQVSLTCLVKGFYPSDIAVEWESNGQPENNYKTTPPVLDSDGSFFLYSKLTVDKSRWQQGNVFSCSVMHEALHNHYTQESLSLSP
light: B1 light
notes: as for B1
B21: GpH7-B3 variant T335_02A/GpL16-k0 (antibody, human IgG1, kappa)
heavy: not shown
light: B1 light
notes: as for B1
B22: GpH7-B3 variant S337_06M/GpL16-k0 (antibody, human IgG1, kappa)
heavy: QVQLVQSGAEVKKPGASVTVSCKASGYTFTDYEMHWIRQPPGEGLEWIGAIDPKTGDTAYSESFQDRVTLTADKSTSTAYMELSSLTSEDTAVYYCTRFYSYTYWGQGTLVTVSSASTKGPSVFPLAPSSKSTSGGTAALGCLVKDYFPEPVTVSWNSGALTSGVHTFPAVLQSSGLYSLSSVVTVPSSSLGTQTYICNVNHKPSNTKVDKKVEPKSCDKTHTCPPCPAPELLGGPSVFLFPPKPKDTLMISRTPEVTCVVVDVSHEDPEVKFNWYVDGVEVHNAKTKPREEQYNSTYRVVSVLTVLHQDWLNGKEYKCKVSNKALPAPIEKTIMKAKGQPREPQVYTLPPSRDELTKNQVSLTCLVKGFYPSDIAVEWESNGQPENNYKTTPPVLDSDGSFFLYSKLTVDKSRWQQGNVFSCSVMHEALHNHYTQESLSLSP
light: B1 light
notes: as for B1
B23: GpH7-A5/GpH7-B3 variant G237_04F/GpL16-k0 (antibody, human IgG1, kappa)
heavy 1: not shown
heavy 2: not shown
light: B1 light
notes: as for B2
B24: GpH7-B3 variant S337_10E/GpL16-k0 (antibody, human IgG1, kappa)
heavy: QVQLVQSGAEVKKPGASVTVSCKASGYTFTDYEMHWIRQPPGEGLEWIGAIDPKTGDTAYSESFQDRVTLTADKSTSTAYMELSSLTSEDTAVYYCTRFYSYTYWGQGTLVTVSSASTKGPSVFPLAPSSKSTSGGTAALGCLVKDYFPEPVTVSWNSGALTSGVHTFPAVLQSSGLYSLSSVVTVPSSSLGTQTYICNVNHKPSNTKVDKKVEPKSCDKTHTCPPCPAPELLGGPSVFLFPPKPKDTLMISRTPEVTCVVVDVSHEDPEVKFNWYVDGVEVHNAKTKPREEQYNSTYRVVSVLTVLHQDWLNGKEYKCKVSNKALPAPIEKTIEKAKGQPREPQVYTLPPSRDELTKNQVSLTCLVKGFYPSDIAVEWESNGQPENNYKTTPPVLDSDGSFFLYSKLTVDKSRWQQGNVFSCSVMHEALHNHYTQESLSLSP
light: B1 light
notes: as for B1
B25: GpH7-A5/GpH7-B3 variant K326_04F/GpL16-k0 (antibody, human IgG1, kappa)
heavy 1: not shown
heavy 2: not shown
light: B1 light
notes: as for B2
B26: GpH7-B3 variant T335_07I/GpL16-k0 (antibody, human IgG1, kappa)
heavy: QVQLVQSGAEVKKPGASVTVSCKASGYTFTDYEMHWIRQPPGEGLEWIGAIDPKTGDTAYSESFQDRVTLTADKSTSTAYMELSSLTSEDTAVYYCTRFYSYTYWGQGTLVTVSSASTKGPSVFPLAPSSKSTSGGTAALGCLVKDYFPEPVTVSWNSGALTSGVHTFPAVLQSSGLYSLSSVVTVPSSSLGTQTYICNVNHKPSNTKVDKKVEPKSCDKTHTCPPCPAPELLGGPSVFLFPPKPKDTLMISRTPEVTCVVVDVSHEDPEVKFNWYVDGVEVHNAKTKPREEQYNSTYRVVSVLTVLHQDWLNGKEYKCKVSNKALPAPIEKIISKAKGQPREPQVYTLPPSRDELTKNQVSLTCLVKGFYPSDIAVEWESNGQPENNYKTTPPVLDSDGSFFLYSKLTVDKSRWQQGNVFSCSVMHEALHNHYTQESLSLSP
light: B1 light
notes: as for B1
B27: GpH7-B3 variant T335_10E/GpL16-k0 (antibody, human IgG1, kappa)
heavy: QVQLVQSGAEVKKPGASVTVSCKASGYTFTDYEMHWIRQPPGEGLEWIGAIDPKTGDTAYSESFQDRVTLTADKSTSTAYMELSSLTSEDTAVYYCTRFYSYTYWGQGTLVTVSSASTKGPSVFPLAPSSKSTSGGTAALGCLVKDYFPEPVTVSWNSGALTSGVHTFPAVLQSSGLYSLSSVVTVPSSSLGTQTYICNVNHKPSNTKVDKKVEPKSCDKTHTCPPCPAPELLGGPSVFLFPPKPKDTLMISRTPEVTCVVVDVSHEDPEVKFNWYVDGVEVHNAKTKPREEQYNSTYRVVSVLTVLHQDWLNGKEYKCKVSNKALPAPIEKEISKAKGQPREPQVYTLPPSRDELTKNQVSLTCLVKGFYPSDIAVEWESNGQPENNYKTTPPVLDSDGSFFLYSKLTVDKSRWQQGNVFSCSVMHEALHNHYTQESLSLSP
light: B1 light
notes: as for B1
B28: GpH7-B3 variant S337_16H/GpL16-k0 (antibody, human IgG1, kappa)
heavy: not shown
light: B1 light
notes: as for B1
B29: GpH7-A5/GpH7-B3 variant L328_13S/GpL16-k0 (antibody, human IgG1, kappa)
heavy 1: not shown
heavy 2: not shown
light: B1 light
notes: as for B2
B30: GpH7-A5/GpH7-B3 variant K326_08L/GpL16-k0 (antibody, human IgG1, kappa)
heavy 1: not shown
heavy 2: not shown
light: B1 light
notes: as for B2
B31: GpH7-A5/GpH7-B3 variant L328_14T/GpL16-k0 (antibody, human IgG1, kappa)
heavy 1: not shown
heavy 2: not shown
light: B1 light
notes: as for B2
B32: GpH7-A5/GpH7-B3 variant A330_01G/GpL16-k0 (antibody, human IgG1, kappa)
heavy 1: not shown
heavy 2: not shown
light: B1 light
notes: as for B2
B33: GpH7-A5/GpH7-B3 variant P238_04F/GpL16-k0 (antibody, human IgG1, kappa)
heavy 1: not shown
heavy 2: not shown
light: B1 light
notes: as for B2
B34: GpH7-A5/GpH7-B3 variant L235_20W/GpL16-k0 (antibody, human IgG1, kappa)
heavy 1: not shown
heavy 2: not shown
light: B1 light
notes: as for B2
B35: GpH7-A5/GpH7-B3 variant K334_04F/GpL16-k0 (antibody, human IgG1, kappa)
heavy 1: not shown
heavy 2: not shown
light: B1 light
notes: as for B2
B36: GpH7-B3 variant T335_13S/GpL16-k0 (antibody, human IgG1, kappa)
heavy: not shown
light: B1 light
notes: as for B1
B37: GpH7-A5/GpH7-B3 variant K334_02A/GpL16-k0 (antibody, human IgG1, kappa)
heavy 1: not shown
heavy 2: not shown
light: B1 light
notes: as for B2
B38: GpH7-A5/GpH7-B3 variant K334_19Q/GpL16-k0 (antibody, human IgG1, kappa)
heavy 1: not shown
heavy 2: not shown
light: B1 light
notes: as for B2
B39: GpH7-A5/GpH7-B3 variant G237_20W/GpL16-k0 (antibody, human IgG1, kappa)
heavy 1: not shown
heavy 2: not shown
light: B1 light
notes: as for B2
B40: GpH7-B3 variant S337_18N/GpL16-k0 (antibody, human IgG1, kappa)
heavy: not shown
light: B1 light
notes: as for B1
B41: GpH7-A5/GpH7-B3 variant H268_01G/GpL16-k0 (antibody, human IgG1, kappa)
heavy 1: not shown
heavy 2: not shown
light: B1 light
notes: as for B2
B42: GpH7-B3 variant S337_20W/GpL16-k0 (antibody, human IgG1, kappa)
heavy: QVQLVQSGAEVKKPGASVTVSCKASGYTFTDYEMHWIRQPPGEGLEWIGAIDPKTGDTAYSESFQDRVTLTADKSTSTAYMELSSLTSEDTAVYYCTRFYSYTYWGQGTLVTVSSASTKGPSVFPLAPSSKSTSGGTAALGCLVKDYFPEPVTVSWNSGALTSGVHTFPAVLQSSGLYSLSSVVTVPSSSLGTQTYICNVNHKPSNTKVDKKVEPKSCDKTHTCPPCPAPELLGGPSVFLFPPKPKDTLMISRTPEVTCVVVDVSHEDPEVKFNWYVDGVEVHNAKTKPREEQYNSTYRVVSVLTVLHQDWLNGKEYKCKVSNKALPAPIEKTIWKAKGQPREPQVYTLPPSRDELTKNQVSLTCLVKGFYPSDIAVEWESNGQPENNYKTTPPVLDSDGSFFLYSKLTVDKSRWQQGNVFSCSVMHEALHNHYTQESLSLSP
light: B1 light
notes: as for B1
B43: GpH7-A5/GpH7-B3 variant K326_20W/GpL16-k0 (antibody, human IgG1, kappa)
heavy 1: not shown
heavy 2: not shown
light: B1 light
notes: as for B2
B44: GpH7-A5/GpH7-B3 variant K334_05P/GpL16-k0 (antibody, human IgG1, kappa)
heavy 1: not shown
heavy 2: not shown
light: B1 light
notes: as for B2

target: T1, FcγRIIa R (extracellular domain with a His tag at the C terminus) (human, UniProt P12318 34-217); test: SPR Biacore, relative binding
T1 construct: extracellular domain; expressed in FreeStyle293 cells; also called FcgRIIa R; FcγRIIa type R; not shown: His tag at the C terminus
T1 sequence (looked up): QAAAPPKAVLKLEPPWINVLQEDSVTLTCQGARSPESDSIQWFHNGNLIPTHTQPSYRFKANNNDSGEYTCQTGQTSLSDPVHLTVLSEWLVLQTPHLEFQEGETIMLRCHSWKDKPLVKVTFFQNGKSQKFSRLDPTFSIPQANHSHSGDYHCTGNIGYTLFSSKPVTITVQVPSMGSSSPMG

Ho/Con_2aR	He/Con_2aR	Binder
118 % of GpH7-B3/GpL16-k0 (=100)	–	B1
–	105 % of GpH7-A5/GpH7-B3/GpL16-k0 (=100)	B2
114 % of GpH7-B3/GpL16-k0 (=100)	–	B3
–	104 % of GpH7-A5/GpH7-B3/GpL16-k0 (=100)	B4
–	106 % of GpH7-A5/GpH7-B3/GpL16-k0 (=100)	B5
–	110 % of GpH7-A5/GpH7-B3/GpL16-k0 (=100)	B6
–	136 % of GpH7-A5/GpH7-B3/GpL16-k0 (=100)	B7
–	109 % of GpH7-A5/GpH7-B3/GpL16-k0 (=100)	B8
–	109 % of GpH7-A5/GpH7-B3/GpL16-k0 (=100)	B9
100 % of GpH7-B3/GpL16-k0 (=100)	–	B10
102 % of GpH7-B3/GpL16-k0 (=100)	–	B11
–	106 % of GpH7-A5/GpH7-B3/GpL16-k0 (=100)	B12
104 % of GpH7-B3/GpL16-k0 (=100)	–	B13
103 % of GpH7-B3/GpL16-k0 (=100)	–	B14
–	147 % of GpH7-A5/GpH7-B3/GpL16-k0 (=100)	B15
–	124 % of GpH7-A5/GpH7-B3/GpL16-k0 (=100)	B16
–	141 % of GpH7-A5/GpH7-B3/GpL16-k0 (=100)	B17
–	110 % of GpH7-A5/GpH7-B3/GpL16-k0 (=100)	B18
–	120 % of GpH7-A5/GpH7-B3/GpL16-k0 (=100)	B19
102 % of GpH7-B3/GpL16-k0 (=100)	–	B20
102 % of GpH7-B3/GpL16-k0 (=100)	–	B21
101 % of GpH7-B3/GpL16-k0 (=100)	–	B22

Ho/Con_2aR	He/Con_2aR	Binder
–	126 % of GpH7-A5/GpH7-B3/GpL16-k0 (=100)	B23
110 % of GpH7-B3/GpL16-k0 (=100)	–	B24
–	135 % of GpH7-A5/GpH7-B3/GpL16-k0 (=100)	B25
107 % of GpH7-B3/GpL16-k0 (=100)	–	B26
109 % of GpH7-B3/GpL16-k0 (=100)	–	B27
107 % of GpH7-B3/GpL16-k0 (=100)	–	B28
–	117 % of GpH7-A5/GpH7-B3/GpL16-k0 (=100)	B29
–	137 % of GpH7-A5/GpH7-B3/GpL16-k0 (=100)	B30
–	119 % of GpH7-A5/GpH7-B3/GpL16-k0 (=100)	B31
–	109 % of GpH7-A5/GpH7-B3/GpL16-k0 (=100)	B32
–	174 % of GpH7-A5/GpH7-B3/GpL16-k0 (=100)	B33
–	131 % of GpH7-A5/GpH7-B3/GpL16-k0 (=100)	B34
–	110 % of GpH7-A5/GpH7-B3/GpL16-k0 (=100)	B35
102 % of GpH7-B3/GpL16-k0 (=100)	–	B36
–	105 % of GpH7-A5/GpH7-B3/GpL16-k0 (=100)	B37
–	109 % of GpH7-A5/GpH7-B3/GpL16-k0 (=100)	B38
–	138 % of GpH7-A5/GpH7-B3/GpL16-k0 (=100)	B39
103 % of GpH7-B3/GpL16-k0 (=100)	–	B40
–	124 % of GpH7-A5/GpH7-B3/GpL16-k0 (=100)	B41
105 % of GpH7-B3/GpL16-k0 (=100)	–	B42
–	131 % of GpH7-A5/GpH7-B3/GpL16-k0 (=100)	B43
–	103 % of GpH7-A5/GpH7-B3/GpL16-k0 (=100)	B44
